Test results as given in patent publication US12611470B2, “Chromatin-opening element for stable long term gene expression” (CZ Biohub SF, LLC, priority 2019, dated 2026).

Test system: P19 cells
Test: Lentiviral transduction silencing experiment, UCOE linked to CMV, EF1α, RSV or PGK promoter driving GFP
Type: cell-based, mouse
Conditions: for anti-silencing performance across all four tested promoters: CMV, EF1α, RSV, PGK promoters; for GFP positive cells / expression compared to the negative control: final timepoint
Source text: The graphs show the raw data of measured percent GFP positive cells (% GFP+) for each construct over time. Transduced populations were sorted into triplicate wells using FACS at day 0 (5 days after lentiviral transductions) to begin the study at 100% GFP positive cells. Expression is lost quickly within the first 10 days, and then stabilizes around day 15. Data is reported as mean±SD from biological triplicates. Two positive UCOE controls (A2UCOE, 3′UCOE) and a negative control (no insulator region) were used.
Percent GFP positive cells at the final timepoint (day 26 for CMV and RSV, day 27 for PGK and EF1α) of the lentivirus silencing experiment across the four tested promoters is plotted. P19 cells were FACS-sorted five days after transduction (day 0) and then assayed over a 26 or 27-day time period thereafter. Data is reported as mean±SD from three biological replicates.
Two plasmids (pCS3800: encoding HIV-1 Gag; pCS380: encoding VSVg envelope protein) were used with varying versions of the donor plasmid pCS3799. HEK293T cells were plated at 5×10^6 cells in a 10 cm dish. Twenty-four hours after plating, the three plasmids (10 μg donor, 8 μg pCS3800, 10 μg pCS3801) were co-transfected together using a calcium phosphate protocol (Zufferey, R. T. and Trono, D. (2001) Current Protocols in Human Genetics, 26 (1), 12.10.1-12.10.12; DOI: 10.1002/0471142905.hg1210s26 (55)). The total DNA was brought to 500 μL in water, to which 500 μL of 2×HEPES-buffered saline, pH7.0 (Alfa Aesar) was added and mixed. One-tenth of the total volume (100 μL) of 2.5 M calcium chloride (Sigma-Aldrich) was then added to the mixture, followed by a 20-minute incubation. The mixture was then added to the plate in a dropwise manner. Media was replaced six hours later, and the supernatant was collected at 48 hr after the transfection, filtered through 0.4 μm filter, and frozen at −80° C. in 1 mL aliquots. Lentiviral aliquots were thawed in a 37° C. bead bath before transductions.
P19 cells were plated at 20-30,000 cells/well in 12-well plates one day before transduction. Twenty-four hours after plating, cells were transduced at varying dilutions of the lentiviral stock (ranging from 1:2 to 1:100) in DMEM+10% FBS with 8 μg/mL polybrene (Santa Cruz Biotechnologies). Media was refreshed on P19 cells 24 hours after transduction, and cells were passaged and assayed through a MACSQuant® VYB flow cytometer (Miltenyi Biotec) 48 h after transduction. MOI was determined by reporter expression at this timepoint using the following formula: MOI=ln (1/1-p) where p is the % of cells that are GFP positive at 48 hours post-transduction (Chen, S. et al. (2015) Cell, 160, 1246-1260 (56)).
Cells were FACS-sorted on the BD Influx™ cell sorter at the Stanford FACS Facility using the 488-nm laser and 525/40 filter to assay GFP expression. After gating for singlets and viability, GFP+ gate was drawn to be <0.1% GFP positive in non-transduced P19 cells. GFP+ gates were re-drawn for each promoter set to avoid the ˜10% highest and lowest expressing cells within the GFP+ gate, but the same gate was used for every experimental condition under the same promoter. Triplicate wells of each population (12-15,000 cells/well in a 24-well plate) were collected.
Fluorescence data throughout silencing experiments was obtained using a MACSQuant® VYB flow cytometer (Miltenyi Biotec). EGFP was measured through the 488-nm laser and 525/50 nm band pass filter. Flow cytometry data was analyzed using the FlowJo™ single cell flow cytometry analysis software (Tree Star). After being gated for singlets and viability, GFP+ gates in FlowJo were drawn such that a non-transfected or non-transduced P19 cell population was at 1% GFP+. Median values reported are of cells within the GFP+ gate, both % GFP positive and median are reported with the standard deviation of biological replicates. […]

[1] = Ef1α promoter, day 27 after FACS sort to 100% GFP+

| Molecule | % GFP+ cells at final timepoint (CMV promoter, day 26) | improvement over the negative control (CMV promoter, day 26) | anti-silencing performance across all four tested promoters | % GFP+ cells, representative example (one biological replicate) (EF1a promoter, day 27) | % GFP+ cells at final timepoint [1] | GFP positive cells / expression compared to the negative control (Ef1α promoter) | % GFP+ cells at final timepoint (PGK promoter, day 27) | % GFP+ cells, representative example (one biological replicate) (PGK promoter, day 27) | % GFP+ cells at final timepoint (RSV promoter, day 26) | efficacy in resisting silencing (CMV promoter) | % GFP+ cells, representative example (one biological replicate) (CMV promoter, day 26) | improvement over A2UCOE (CMV promoter, day 26) | efficacy in resisting silencing (Ef1α promoter) | efficacy in resisting silencing (PGK promoter) | efficacy in resisting silencing (RSV promoter) | expressing cells / improvement over the negative control (PGK promoter, day 27) |
| --- | --- | --- | --- | --- | --- | --- | --- | --- | --- | --- | --- | --- | --- | --- | --- | --- |
| Candidate 6-3: Truncated SRF-UCOE variant having a 241 base pair 3′ end deletion, SEQ ID NO:4 (nucleic acid) DNA: GCACACGACCACAATTCCACTGAAAGCATTTTAATACGGAACTTGTCACTCCCAGGGAGCCTCCGCTCAGCCGGCAGTTGGTTCATTTCAATCCCCACGACAACCCTTCAAAGTGCAGGGCAGACAGCAGGTGGCTCTGCCCAGGCGCCTGGATCACAGCCCGGCCTGCAGCCCTCACCTGGGCGCGGGGAGACCCTGAGGACGCTCCTCCAGGCGGCGCTGGCCGGGGCCTGCGGACACGGACGGGCGGGCTGAGCTCCGGGACCCCTCCCCGCGCCCCGCACCCCGCACCCCGCACCCCGCACCCCGCACCCGGCGCTCACCCGTCCCAGCCCCGCCGCCCGCAGCCCCAGCTGCAACGCAGCCACCGCCGCCATCGCACCCGGCCCCGCGGGCGCTTCCGGGACGCAGGAGGCATCTGCATCCGGGGCGCCGCTGAGTCCCGCCCAGAGCCCCGCCCCCGGCTCCAGGTTCTGCGAGCGGCTTCCGCCGGGCTGCTCCGCGGGCGCGTCGGCCATGAGCGAGTTGCCGGGCGACGTGCGGGCGTTTCTGCGGGAGCACCCGAGCCTGCGGCTCCAGACGGACGCCCGCAAGGTTCGCAGCGCGGGAGGGGAACGGAGTGGCGGAGAAGGGCGCAGTTGGGATGAGGGGCTGAGGGGAGGGCAGGGGAGAGGAGAGGGCAGGGGAGAGGGGAGAGGGGAGAGCAGGAGAGAGGGGAAGGCAGGGGAGAGGGCGCGGCGGGATCAGGGGAGGAGAGGGAA | 39% | 3 fold | most consistent activity | 69% | greater than 65% | more than four times | 49% | 47.8% | 66% |  |  |  |  |  |  |  |
| Candidate 6-2: Truncated SRF-UCOE variant having a 478 base pair 5′ end deletion, SEQ ID NO:3 (nucleic acid) DNA: AGCGGCTTCCGCCGGGCTGCTCCGCGGGCGCGTCGGCCATGAGCGAGTTGCCGGGCGACGTGCGGGCGTTTCTGCGGGAGCACCCGAGCCTGCGGCTCCAGACGGACGCCCGCAAGGTTCGCAGCGCGGGAGGGGAACGGAGTGGCGGAGAAGGGCGCAGTTGGGATGAGGGGCTGAGGGGAGGGCAGGGGAGAGGAGAGGGCAGGGGAGAGGGGAGAGGGGAGAGCAGGAGAGAGGGGAAGGCAGGGGAGAGGGCGCGGCGGGATCAGGGGAGGAGAGGGAAGGGGGCGCGGCAGGAGGGGGCACCAGGGAGCGGAGCCCTGGCCCTCCTGACGTCCTGCCCGCCCACGCGTCCGCAGGTGAGGTGCATCCTGACAGGTCACGAGCTGCCCTGCCGCCTGCCGGAGCTCCAGGTCTACACCCGCGGCAAAAAGTACCAGCGGCTGGTCCGCGCCTCCCCGGCCTTCGACTATGCAGAGTTCGAGCCGCACATCGTGCCCAGCACCAAGAACCCGTAGGTGGTC | 55% | 4.4 fold | failed to outperform the negative control in 3 of the 4 promoters tested |  | 11% |  | 17% |  |  | best-performing population | 59.2% | 1.4 fold | ineffective | substantially less effective than the other Candidate 6 sequences | ineffective |  |
| Candidate 6-1: Truncated SRF-UCOE variant having a 106 base pair 5′ end deletion, SEQ ID NO:2 (nucleic acid) DNA: TTCAAAGTGCAGGGCAGACAGCAGGTGGCTCTGCCCAGGCGCCTGGATCACAGCCCGGCCTGCAGCCCTCACCTGGGCGCGGGGAGACCCTGAGGACGCTCCTCCAGGCGGCGCTGGCCGGGGCCTGCGGACACGGACGGGCGGGCTGAGCTCCGGGACCCCTCCCCGCGCCCCGCACCCCGCACCCCGCACCCCGCACCCCGCACCCGGCGCTCACCCGTCCCAGCCCCGCCGCCCGCAGCCCCAGCTGCAACGCAGCCACCGCCGCCATCGCACCCGGCCCCGCGGGCGCTTCCGGGACGCAGGAGGCATCTGCATCCGGGGCGCCGCTGAGTCCCGCCCAGAGCCCCGCCCCCGGCTCCAGGTTCTGCGAGCGGCTTCCGCCGGGCTGCTCCGCGGGCGCGTCGGCCATGAGCGAGTTGCCGGGCGACGTGCGGGCGTTTCTGCGGGAGCACCCGAGCCTGCGGCTCCAGACGGACGCCCGCAAGGTTCGCAGCGCGGGAGGGGAACGGAGTGGCGGAGAAGGGCGCAGTTGGGATGAGGGGCTGAGGGGAGGGCAGGGGAGAGGAGAGGGCAGGGGAGAGGGGAGAGGGGAGAGCAGGAGAGAGGGGAAGGCAGGGGAGAGGGCGCGGCGGGATCAGGGGAGGAGAGGGAAGGGGGCGCGGCAGGAGGGGGCACCAGGGAGCGGAGCCCTGGCCCTCCTGACGTCCTGCCCGCCCACGCGTCCGCAGGTGAGGTGCATCCTGACAGGTCACGAGCTGCCCTGCCGCCTGCCGGAGCTCCAGGTCTACACCCGCGGCAAAAAGTACCAGCGGCTGGTCCGCGCCTCCCCGGCCTTCGACTATGCAGAGTTCGAGCCGCACATCGTGCCCAGCACCAAGAACCCGTAGGTGGTC | 39% | 3 fold |  |  |  | 3.6 times | 31% |  | 68% |  |  |  |  |  |  | 5 fold |
